Experimental data as given in the supplement of paper PMC10567573.

B1: BEX1 (parent)
chain: HSLRAVSTDPPHHDHHDEFCLMP
B2: BCL2L13 (parent)
chain: MASSSTVPLGFHYETKYVVLSYLG

Variants of: B1
Assay: protein stability index of a GFP-peptide fusion (GPS, HEK-293T) (PSI 1-6); higher = more stable
Conditions: c terminus: native

Protein stability index of substitutions, site by site:
H13: P 2.23
H1: V 1.77
C20: Y 2.92; P 1.97
E18: P 2.79; D 2.6
D9: T 4.07; H 1.85; I 2.76; Q 3.63
H16: P 2.78
R4: H 2.76; Y 2.16; D 2.54; P 2.6; N 2.64; S 2
P23: E 3.77; N 3.49; C 2.32; R 2.45; V 2.19; D 4.48; L 2.66; T 1.75; M 2.12; H 3.59; W 2.19; S 2.77; A 2.23; Q 2.84; K 2.9; F 2.41; Y 2.07; G 2.55
V6: W 3.53; Q 2.21; T 1.79; E 2.26; H 1.83
F19: D 2.37; H 2.8
D14: T 3.55; H 2.62
L21: P 2.75; M 2.21; D 2.46; S 2.31; K 2.07; V 2.53; T 2.47; W 1.92; Y 2.2; N 2.84; G 2.9; Q 2.14; R 1.99
S7: K 2.62; E 2.32; A 1.29; P 2.54
M22: N 2.52; T 3.4; H 2.01; S 2.59; P 2.68; Q 2.83; F 1.19; Y 2.35; R 2.74; K 3.36; G 1.79; W 2.48; D 2.11; I 2.04; E 2.4; A 2.11; C 2.48; V 2.75; L 1.91
H12: T 3.57
A5: Y 2; R 1.68; P 2.3
P11: H 2.62
H15: I 2.19
T8: P 2.14
D17: P 2.96
L3: P 2.19; F 2.27
S2: P 1.93; G 2.21

Variants of: B1
Assay: as above
Conditions: c terminus: native
Remark: another data set of the same source

Protein stability index of substitutions, site by site:
P23: E 4.61; N 4.23; C 3.58; I 2.44; R 3.16; V 3.07; D 4.52; L 3.24; T 3.02; M 3.17; H 3.81; W 2.97; S 3.56; A 3.09; F 3.35; G 3.75
L21: M 2.39; S 3.23; K 3.1; V 2.66; T 3.14; W 2.9; Y 2.39; N 3.18; Q 3.42; R 2.33
M22: Q 2.9; R 3.24; K 4; W 2.78; E 3.21; V 2.95

Variants of: B2
Assay: as above
Conditions: c terminus: a fixed tail appended

Protein stability index, by site and new letter:
V7: H 2.67; C 3.72; I 2.72; P 2.14; A 2.78; E 3.31; M 2.35; G 2.08; L 3.03; T 2.36; D 3.29; W 2.36; Y 3.3; N 3.19; F 2.17; R 2.33; S 3.11; K 2.84
F11: I 2.02; C 2.63; Y 2.49; R 1.71; H 1.67; Q 2.85; K 2.63; E 1.94; L 2.36; D 2.03; T 1.81; N 2.69; S 1.9; M 2.82; P 2.33; A 2.41; G 1.35; W 1.89
A2: F 3.22; I 1.92; G 2.72; C 3.03; R 2.37; T 3.3; P 2.49; L 2.56; M 2.68; K 2.38; N 3.27; D 2.56; S 3.1; Q 2.37; E 2.06; H 2.74
M1: W 2.52; H 2.59; V 2.12; C 2.59; T 2.27; Q 1.76; K 2.03; G 3.23; D 3.17; P 2.72; I 2.51; S 2.15; E 2.12; Y 2.09; F 2.74; R 2.48
P8: L 1.66; E 2.25; G 4.24; W 3.73; K 3.91; S 2.54; Q 2.54; R 3.92; V 2.15; N 3.63; D 2.98; M 3.28; Y 3.53; A 2.97; T 2.53; I 2.73; F 2.74; H 2.22
Y13: L 2.59; S 2.07; K 1.44; A 2.82; R 1.85; M 2.14; C 2.25; N 1.7; F 3.43; Q 1.39; I 2.65; G 2.14; P 1.84; D 2.35; E 1.59; H 2.27
L9: G 2.75; S 3.42; M 2.35; C 3.98; N 3.25; W 3.66; A 2; H 2.31; V 2.06; E 2.33; D 2.32; Q 2.62; T 2.45; Y 2.57; F 1.33; K 2.57; I 3.14; P 2.1; R 1.79
H12: C 3.05; P 2.5; I 2.75; N 2.12; S 3.12; V 2.67; Y 3.26; M 2.39; W 2.66; G 2.11; K 2.23; Q 2.67; A 2.3; L 1.49; T 1.81; R 1.91; E 2.55; F 3.51; D 2.39
T6: C 1.67; S 2.95; V 1.82; I 2.35; D 2.29; E 3.45; L 2.14; Y 2.66; G 1.94; P 2.59; A 2.45; N 2.58; H 3.22; K 2.59; W 2.27; R 2.82; M 2.4; Q 2.26
S3: T 3.21; Y 2.64; V 3; M 2.72; R 2.97; N 2.59; Q 2.21; F 1.99; E 3.48; H 2.77; I 3.39; K 2.62; A 2.39; P 2.9; G 3.46; D 2.57; C 2.59
G10: H 3.03; K 3.29; N 2.93; Q 1.69; I 1.73; V 2.14; F 2.22; R 3.6; E 2.13; W 2.57; M 2.73; S 2.77; T 3.54; Y 4.41; A 2.01; C 2.1; D 2.02; L 2.52
S5: M 2.51; D 2.72; Q 2.96; A 1.72; N 2.72; I 2.74; P 2.24; R 2.4; E 1.53; F 2.55; T 2.71; L 2.16; K 1.91; V 2.17; Y 3.24; C 2.11; W 2.02; H 2.09; G 2.2
S4: T 2.81; P 3.27; I 2.21; H 2.24; N 1.7; V 2.91; A 2.6; D 2.74; K 2.21; Y 2.38; W 2.93; G 2.49; M 1.76; E 4.38; Q 3.25
